Reference: patent US20140105889A1 (published 2014)
Changes are numbered by the printed parent chain. Numbers in names are those of the source.

T1: human FcγRIIa type R (human, UniProt P12318 36-217)
T1 construct: also called FcγRIIaR; FcγRIIa(R)
T1 chain: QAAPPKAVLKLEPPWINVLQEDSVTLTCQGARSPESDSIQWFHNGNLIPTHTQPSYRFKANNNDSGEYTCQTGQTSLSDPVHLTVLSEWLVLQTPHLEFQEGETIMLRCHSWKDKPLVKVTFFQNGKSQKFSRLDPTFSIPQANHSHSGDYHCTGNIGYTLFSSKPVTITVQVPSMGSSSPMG

T2: human FcγRIIb (human, UniProt P31994 43-217)
T2 construct: also called FcγIIB
T2 sequence: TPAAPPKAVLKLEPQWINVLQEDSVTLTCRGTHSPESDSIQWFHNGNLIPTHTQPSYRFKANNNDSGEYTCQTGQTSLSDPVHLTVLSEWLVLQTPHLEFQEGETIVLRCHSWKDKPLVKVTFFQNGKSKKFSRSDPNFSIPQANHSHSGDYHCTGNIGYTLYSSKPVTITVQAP

T3: human FcγRIIa type H (human, UniProt P12318 36-217)
T3 construct: Whole entry named for FcγRIIa allotype H131 (AAH20823.1); also called FcγRIIaH; FcγRIIa(H)
T3 sequence: T1 chain with R133H

T4: human FcγRIIb (human, UniProt P31994 43-217, limits assumed)
T4 construct: also called FcgRIIb; FcγIIB
T4 sequence: T2 sequence

T5: human FcγRIIa type H (human, UniProt P12318 36-217)
T5 construct: also called FcgRIIaH; FcγRIIa(H)
T5 sequence: T1 chain with R133H

B1: IL6R-BP121/IL6R-L (antibody, human IgG1)
heavy: QVQLQESGPGLVKPSETLSLTCAVSGHSISHDHAWSWVRQPPGEGLEWIGFISYSGITNYNPSLQGRVTISRDNSKNTLYLQMNSLRAEDTAVYYCARSLARTTAMDYWGEGTLVTVSSASTKGPSVFPLAPSSKSTSGGTAALGCLVKDYFPEPVTVSWNSGALTSGVHTFPAVLQSSGLYSLSSVVTVPSSSLGTQTYICNVNHKPSNTKVDKKVEPKSCDKTHTCPPCPAPELLGGDSVFLFPPKPKDTLMISRTPEVTCVVVDVSHEDPEVKFNWYVDGVEVHNAKTKPREEQYNSTYRVVSVLTVLHQDWLNGKEYKCKVSNQALPAPIEKTISKAKGQPREPQVYTLPPSRDELTKNQVSLTCLVKGFYPSDIAVEWESNGQPENNYKTTPPVLDSDGSFFLYSKLTVDKSRWQQGNVFSCSVMHEALHNHYTQESLSLSP
light: DIQMTQSPSSLSASVGDRVTITCRASQDISSYLNWYQQKPGKAPKLLIYYTSRLHSGVPSRFSGSGSGTDFTFTISSLQPEDIATYYCQQGNTLPYTFGQGTKVEIK
notes: copies: 2 + 2
B2: IL6R-BF648/IL6R-L (antibody, human IgG1)
heavy: not shown
light: B1 light
notes: IL6R-B3 with P238D; copies: 2 + 2
B3: IL6R-BP213/IL6R-L (antibody, human IgG1)
heavy: B1 heavy with E235D, H270D, P273G, Q328K, A332R
light: B1 light
notes: The common L chain is IL6R-L; copies: 2 + 2
B4: IL6R-BP192/IL6R-L (antibody, human IgG1)
heavy: B1 heavy with E235D, H270D, P273G, Y298D, Q328K, A332K
light: B1 light
notes: as for B3
B5: IL6R-BP187/IL6R-L (antibody, human IgG1)
heavy: B1 heavy with L236Y, P273G, Q328A, A332K
light: B1 light
notes: as for B3
B6: IL6R-BP189/IL6R-L (antibody, human IgG1)
heavy: B1 heavy with G239D, H270D, P273G, Q328A, A332K
light: B1 light
notes: as for B3
B7: IL6R-BP203/IL6R-L (antibody, human IgG1)
heavy: B1 heavy with G239D, P273G, Q328K, A332R
light: B1 light
notes: as for B3
B8: IL6R-BP190/IL6R-L (antibody, human IgG1)
heavy: B1 heavy with G239D, H270D, P273G, Q328K, A332K
light: B1 light
notes: as for B3
B9: IL6R-BP198/IL6R-L (antibody, human IgG1)
heavy: B1 heavy with E235D, L236Y, H270D, P273G, Q328A, A332K
light: B1 light
notes: as for B3
B10: IL6R-BP211/IL6R-L (antibody, human IgG1)
heavy: B1 heavy with E235D, H270D, P273G, Q328A, A332R
light: B1 light
notes: as for B3
B11: IL6R-BP199/IL6R-L (antibody)
heavy: B1 heavy with E235D, Q328D, A332R
light: B1 light
notes: copies: 2 + 2
B12: IL6R-BP191/IL6R-L (antibody, human IgG1)
heavy: B1 heavy with E235D, H270D, P273G, Q328A, A332K
light: B1 light
notes: as for B3
B13: IL6R-BP196/IL6R-L (antibody, human IgG1)
heavy: B1 heavy with L236Y, H270D, P273G, Q328A, A332K
light: B1 light
notes: as for B3
B14: IL6R-G1d/IL6R-L (antibody, human IgG1)
heavy: not shown
light: B1 light
notes: Anti-human IL-6 receptor IgG1 with G1d constant region (C-terminal Gly and Lys removed); also called IgG1; copies: 2 + 2
B15: IL6R-BP197/IL6R-L (antibody)
heavy: B1 heavy with E235D, L236Y, G239D, H270D, P273G, Y298D, Q328D, A332K
light: B1 light
notes: copies: 2 + 2
B16: IL6R-BP194/IL6R-L (antibody, human IgG1)
heavy: B1 heavy with E235D, L236Y, G239D, H270D, P273G, Q328A, A332K
light: B1 light
notes: as for B3
B17: IL6R-BP912/IL6R-L (antibody, human IgG1)
heavy: B1 heavy with Q328K, A332R
light: B1 light
notes: copies: 2 + 2
B18: IL6R-BP206/IL6R-L (antibody, human IgG1)
heavy: B1 heavy with E235D, P273G, Q328K, A332R
light: B1 light
notes: as for B3
B19: IL6R-BP195/IL6R-L (antibody, human IgG1)
heavy: B1 heavy with E235D, L236Y, G239D, H270D, P273G, Y298D, Q328A, A332K
light: B1 light
notes: as for B3

Key:
[1] = molecular target: T6, human FcγRIa (human, UniProt P12314 16-292, limits assumed); assay: SPR (Biacore), FcγR over captured antibody; amount bound relative to IL6R-BF648/IL6R-L x100
T6 construct: also called CD64
T6 sequence (P12314 16-292 limits assumed): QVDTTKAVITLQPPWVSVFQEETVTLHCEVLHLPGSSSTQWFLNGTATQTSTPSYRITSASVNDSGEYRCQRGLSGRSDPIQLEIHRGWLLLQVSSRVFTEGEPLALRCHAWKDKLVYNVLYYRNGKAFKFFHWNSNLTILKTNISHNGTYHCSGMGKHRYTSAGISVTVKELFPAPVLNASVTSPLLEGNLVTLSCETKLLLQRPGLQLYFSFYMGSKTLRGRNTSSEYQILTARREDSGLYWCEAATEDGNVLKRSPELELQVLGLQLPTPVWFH

[2] = molecular target: T1, human FcγRIIa type R; assay: as above
[3] = molecular target: T7, human FcγRIIIa type V (human, UniProt P08637 17-208, limits assumed); assay: as above
T7 construct: also called FcγRIIIaV; FcγRIIIa(V)
T7 sequence (P08637 other isoform, or with tags, fused parts or gaps limits assumed): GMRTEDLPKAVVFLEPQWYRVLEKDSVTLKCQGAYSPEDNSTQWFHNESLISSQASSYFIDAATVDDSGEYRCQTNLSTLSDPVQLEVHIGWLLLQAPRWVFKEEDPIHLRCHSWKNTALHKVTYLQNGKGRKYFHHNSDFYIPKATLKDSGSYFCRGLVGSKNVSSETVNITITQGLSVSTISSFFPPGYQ

[4] = molecular target: T2, human FcγRIIb; assay: as above
[5] = molecular target: T3, human FcγRIIa type H; assay: as above
[6] = molecular target: T4, human FcγRIIb; assay: SPR (Biacore); binding amount divided by that of control IL6R-BF648/IL6R-L, x100
Protocol: (§1) According to the following method, relative binding activities were calculated for the results of analyzing interactions with the respective FcγRs.

[7] = molecular target: T8, human FcγRIa (human, UniProt P12314 16-292, limits assumed); assay: as above
T8 construct: also called FcgRIa; CD64
T8 sequence (P12314 16-292 limits assumed): as the sequence (P12314 16-292 limits assumed) above
Protocol: as §1

[8] = molecular target: T9, human FcγRIIIa type V (human, UniProt P08637 17-208, limits assumed); assay: as above
T9 construct: The assay used allotype V158; also called FcgRIIIaV; FcγRIIIa(V)
T9 sequence (P08637 other isoform, or with tags, fused parts or gaps limits assumed): as the sequence (P08637 other isoform, or with tags, fused parts or gaps limits assumed) above
Protocol: as §1

[9] = molecular target: T5, human FcγRIIa type H; assay: as above
Protocol: as §1

| Binder | relative binding [1] | relative binding [2] | relative binding [3] | relative binding [4] | relative binding [5] | relative binding activity [6] | relative binding activity [7] | relative binding activity [8] | relative binding activity [9] |
| --- | --- | --- | --- | --- | --- | --- | --- | --- | --- |
| B1 | 118 relative value (IL6R-BF648/IL6R-L = 100) | 155 relative value (IL6R-BF648/IL6R-L = 100) | 157 relative value (IL6R-BF648/IL6R-L = 100) | 113 relative value (IL6R-BF648/IL6R-L = 100) | 135 relative value (IL6R-BF648/IL6R-L = 100) |  |  |  |  |
| B2 | 100 relative value (IL6R-BF648/IL6R-L = 100) | 100 relative value (IL6R-BF648/IL6R-L = 100) | 100 relative value (IL6R-BF648/IL6R-L = 100) | 100 relative value (IL6R-BF648/IL6R-L = 100) | 100 relative value (IL6R-BF648/IL6R-L = 100) |  |  |  |  |
| B3 |  |  |  |  |  | 169 % of IL6R-BF648/IL6R-L | 118 % of IL6R-BF648/IL6R-L | 100 % of IL6R-BF648/IL6R-L | 123 % of IL6R-BF648/IL6R-L |
| B4 |  |  |  |  |  | 172 % of IL6R-BF648/IL6R-L | 109 % of IL6R-BF648/IL6R-L | 118 % of IL6R-BF648/IL6R-L | 122 % of IL6R-BF648/IL6R-L |
| B5 |  |  |  |  |  | 157 % of IL6R-BF648/IL6R-L | 68 % of IL6R-BF648/IL6R-L | 124 % of IL6R-BF648/IL6R-L | 205 % of IL6R-BF648/IL6R-L |
| B6 |  |  |  |  |  | 177 % of IL6R-BF648/IL6R-L | 56 % of IL6R-BF648/IL6R-L | 141 % of IL6R-BF648/IL6R-L | 183 % of IL6R-BF648/IL6R-L |
| B7 |  |  |  |  |  | 185 % of IL6R-BF648/IL6R-L | 35 % of IL6R-BF648/IL6R-L | 88 % of IL6R-BF648/IL6R-L | 255 % of IL6R-BF648/IL6R-L |
| B8 |  |  |  |  |  |  | 50 % of IL6R-BF648/IL6R-L | 155 % of IL6R-BF648/IL6R-L | 224 % of IL6R-BF648/IL6R-L |
| B9 |  |  |  |  |  | 164 % of IL6R-BF648/IL6R-L | 104 % of IL6R-BF648/IL6R-L | 157 % of IL6R-BF648/IL6R-L | 188 % of IL6R-BF648/IL6R-L |
| B10 |  |  |  |  |  | 165 % of IL6R-BF648/IL6R-L | 128 % of IL6R-BF648/IL6R-L | 87 % of IL6R-BF648/IL6R-L |  |
| B11 |  |  |  |  |  | 144 % of IL6R-BF648/IL6R-L | 112 % of IL6R-BF648/IL6R-L | 103 % of IL6R-BF648/IL6R-L | 116 % of IL6R-BF648/IL6R-L |
| B12 |  |  |  |  |  |  | 125 % of IL6R-BF648/IL6R-L | 142 % of IL6R-BF648/IL6R-L | 145 % of IL6R-BF648/IL6R-L |
| B13 |  |  |  |  |  | 157 % of IL6R-BF648/IL6R-L | 89 % of IL6R-BF648/IL6R-L | 137 % of IL6R-BF648/IL6R-L | 195 % of IL6R-BF648/IL6R-L |
| B14 | 140 relative value (IL6R-BF648/IL6R-L = 100) | 650 relative value (IL6R-BF648/IL6R-L = 100) | 3350 relative value (IL6R-BF648/IL6R-L = 100) | 62 relative value (IL6R-BF648/IL6R-L = 100) | 1670 relative value (IL6R-BF648/IL6R-L = 100) |  |  |  |  |
| B15 |  |  |  |  |  | 179 % of IL6R-BF648/IL6R-L | 71 % of IL6R-BF648/IL6R-L | 206 % of IL6R-BF648/IL6R-L | 294 % of IL6R-BF648/IL6R-L |
| B16 |  |  |  |  |  | 178 % of IL6R-BF648/IL6R-L | 69 % of IL6R-BF648/IL6R-L | 249 % of IL6R-BF648/IL6R-L | 395 % of IL6R-BF648/IL6R-L |
| B17 | 60 relative value (IL6R-BF648/IL6R-L = 100) | 81 relative value (IL6R-BF648/IL6R-L = 100) | 97 relative value (IL6R-BF648/IL6R-L = 100) | 103 relative value (IL6R-BF648/IL6R-L = 100) | 93 relative value (IL6R-BF648/IL6R-L = 100) |  |  |  |  |
| B18 |  |  |  |  |  | 168 % of IL6R-BF648/IL6R-L | 101 % of IL6R-BF648/IL6R-L | 92 % of IL6R-BF648/IL6R-L | 123 % of IL6R-BF648/IL6R-L |
| B19 |  |  |  |  |  |  | 68 % of IL6R-BF648/IL6R-L | 221 % of IL6R-BF648/IL6R-L | 344 % of IL6R-BF648/IL6R-L |
